Assay results as given in publication PMC2993744.
Values joined by “and” are separate entries in the source; they are usually repeats but may differ in a detail not shown here. Equal entries are not always repeated.

How the values were obtained:
TatB(L54Bpa) (E. coli) = TatB(L54Bpa) (E. coli) (UniProt P69425); experiment: cross-linking
[1] = molecular target: TatB, wild type (E. coli) (UniProt P69425); experiment: cross-linking

Row | Substance | stoichiometry N (TatB(L54Bpa) (E. coli)) | percent of the vesicle-associated pSufI in the TatB adduct [1]
1 | TatB(L54Bpa) (from UniProt P69425 1-171) (natural protein) | 2 and 3 | 
2 | pSufI(L328Bpa) (from UniProt P26648 1-470) (natural protein) |  | 15%
